Assay results as given in US20200123267A1 (Genentech, published 2020).

Assays:
[1] = target: Human TfR extracellular domain containing an N-terminal His tag (human) (UniProt P02786); assay: SPR, bispecific antibody
[2] = target: Human TfR extracellular domain containing an N-terminal His tag (human) (UniProt P02786); assay: SPR, monovalent, TfR captured via anti-His, bispecific injected
[3] = target: T1, TfR (species and construct not stated, Table 13) (Homo sapiens (Human), UniProt P02786 89-760); assay: kinetic measurement, method not stated
T1 construct: not shown: N-terminal His tag of the soluble TfR ecd construct
T1 sequence (P02786 89-760 G142S limits assumed): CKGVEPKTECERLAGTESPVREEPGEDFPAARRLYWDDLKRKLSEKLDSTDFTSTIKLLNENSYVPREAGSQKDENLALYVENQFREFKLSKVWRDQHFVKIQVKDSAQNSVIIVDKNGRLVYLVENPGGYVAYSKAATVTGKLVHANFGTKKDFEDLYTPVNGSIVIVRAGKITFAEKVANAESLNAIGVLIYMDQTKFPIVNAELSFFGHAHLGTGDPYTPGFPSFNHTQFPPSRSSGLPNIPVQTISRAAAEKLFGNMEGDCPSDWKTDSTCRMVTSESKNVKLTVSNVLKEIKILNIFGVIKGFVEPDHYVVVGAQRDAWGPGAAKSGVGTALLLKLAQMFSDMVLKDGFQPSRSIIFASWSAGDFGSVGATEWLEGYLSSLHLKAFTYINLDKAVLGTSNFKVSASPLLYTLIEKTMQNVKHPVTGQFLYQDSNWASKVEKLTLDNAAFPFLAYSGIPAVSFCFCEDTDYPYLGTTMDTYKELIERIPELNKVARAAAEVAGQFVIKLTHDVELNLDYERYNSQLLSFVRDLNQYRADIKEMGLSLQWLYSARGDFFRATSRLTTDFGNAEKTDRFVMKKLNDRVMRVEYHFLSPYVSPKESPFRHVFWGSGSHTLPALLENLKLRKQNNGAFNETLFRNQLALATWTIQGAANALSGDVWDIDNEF

Human TfR extracellular domain containing an N-terminal His tag (human), sequence (P02786 89-760 G142S): as the sequence (P02786 89-760 G142S limits assumed) above

Kd [1] [µM] | Kd [2] [µM] | koff [2] [s⁻¹] | kon [2] [M⁻¹ s⁻¹] | koff [3] [s⁻¹] | kon [3] [M⁻¹ s⁻¹] | Binder
0.27 | 0.295 | 0.0377 | 128000 | – | – | anti-TfR^2/BACE1 bispecific antibody (15G11.W92A arm, human IgG1 D265A N297G, knob in hole) (bispecific antibody, part only; not given: Anti-BACE1 arm and constant regions, V domains shown, not shown: another chain or arm of the molecule; a dimerising Fc or GST; small tags and cut ends) VH: EVQLVQSGAEVKKPGASVKVSCKASGYTFTSYWMHWVRQAPGQRLEWIGEINPTNGRTNYIEKFKSRATLTVDKSASTAYMELSSLRSEDTAVYYCARGTRAYHYWGQGTMVTVSS VL: DIQMTQSPSSLSASVGDRVTITCRASDNLYSNLAWYQQKPGKSPKLLVYDATNLADGVPSRFSGSGSGTDYTLTISSLQPEDFATYYCQHFAGTPLTFGQGTKVEIK
0.01 | – | – | – | – | – | anti-TfR^1/BACE1 bispecific antibody (15G11.v5 arm, human IgG1 D265A N297G, knob in hole) (bispecific antibody, part only; not given: Anti-BACE1 arm and constant regions, V domains shown, not shown: another chain or arm of the molecule; a dimerising Fc or GST; small tags and cut ends) VH: EVQLVQSGAEVKKPGASVKVSCKASGYTFTSYWMHWVRQAPGQRLEWIGEINPTNGRTNYIEKFKSRATLTVDKSASTAYMELSSLRSEDTAVYYCARGTRAYHYWGQGTMVTVSS VL: DIQMTQSPSSLSASVGDRVTITCRASDNLYSNLAWYQQKPGKSPKLLVYDATNLADGVPSRFSGSGSGTDYTLTISSLQPEDFATYYCQHFWGTPLTFGQGTKVEIK
– | – | – | – | 0.0231 | 320000 | antiTfR.52A.M108L.Fab (Fab, V domains shown, Fab; also called anti-TfR Fab comprising the M108L mutation) VH: EVQLVQSGAEVKKPGASVKVSCKASGYTFTSYWMHWVRQAPGQRLEWIGEIAPTNGRTNYIEKFKSRATLTVDKSASTAYMELSSLRSEDTAVYYCARGTRAYHYWGQGTLVTVSS VL: DIQMTQSPSSLSASVGDRVTITCRASDNLYSNLAWYQQKPGKSPKLLVYDATNLADGVPSRFSGSGSGTDYTLTISSLQPEDFATYYCQHFWGTPLTFGQGTKVEIK
– | – | – | – | 0.0204 | 371000 | Hu15G11.HC52A Fab (Fab, V domains shown, Fab; also called antiTfR.52A.Fab; 15G11.52A Fab) VH: EVQLVQSGAEVKKPGASVKVSCKASGYTFTSYWMHWVRQAPGQRLEWIGEIAPTNGRTNYIEKFKSRATLTVDKSASTAYMELSSLRSEDTAVYYCARGTRAYHYWGQGTMVTVSS VL: DIQMTQSPSSLSASVGDRVTITCRASDNLYSNLAWYQQKPGKSPKLLVYDATNLADGVPSRFSGSGSGTDYTLTISSLQPEDFATYYCQHFWGTPLTFGQGTKVEIK
